# T1: alpha-s1 casein from Bos taurus
# T1 chain: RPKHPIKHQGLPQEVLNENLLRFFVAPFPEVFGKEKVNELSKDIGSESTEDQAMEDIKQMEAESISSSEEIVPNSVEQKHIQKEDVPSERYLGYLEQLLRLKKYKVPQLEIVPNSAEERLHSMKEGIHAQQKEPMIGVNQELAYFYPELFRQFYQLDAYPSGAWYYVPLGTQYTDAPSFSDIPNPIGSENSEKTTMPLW
# Molecular target: T1, alpha-s1 casein from Bos taurus
protein,measurement,value
Maxiren (recombinant wild-type calf chymosin B) (protein) GEVASVPLTNYLDSQYFGKIYLGTPPQEFTVLFDTGSSDFWVPSIYCKSNACKNHQRFDPRKSSTFQNLGKPLSIHYGTGSMQGILGYDTVTVSNIVDIQQTVGLSTQEPGDVFTYAEFDGILGMAYPSLASEYSIPVFDNMMNRHLVAQDLFSVYMDRNGQESMLTLGAIDPSYYTGSLHWVPVTVQQYWQFTVDSVTISGVVVACEGGCQAILDTGTSKLVGPSSDILNIQQAIGATQNQYGEFDIDCDNLSYMPTVVFEINGKMYPLTPSAYTSQDQGFCTSGFQSENHSQKWILGDVFIREYYSVFDRANNLVGLAKAI,"(αSN1-1)/(αSN1), 6 hours, 11° C. (average)",1.7
same,"(αSN1-1)/(αSN1), 24 hours, 11° C. (average)",6.3
same,hydrolysis of the first cut in alpha-s1-casein,This rapid first cut is similar to the situation with wild-type calf chymosin (Maxiren)
same,"small, 6 hours, 11° C.",0 Volume
same,"small, 16 hours, 30° C.",8.1e+06 Volume
same,"small, 24 hours, 11° C.",6.7e+06 Volume
same,"αs1-I CN, 6 hours, 11° C.",2.12e+07 Volume
same,"αs1-I CN, 6 hours, 11° C. (average)",2.63e+07 Volume
same,"αs1-I CN, 16 hours, 30° C.",600000 Volume
same,"αs1-I CN, 24 hours, 11° C.",1.59e+07 Volume
same,"αs1-I CN, 24 hours, 11° C. (average)",2.52e+07 Volume
same,"αs1-I CN/αs1 CN, 6 hours, 11° C.",1.9
same,"αs1-I CN/αs1 CN, 24 hours, 11° C.",9.7
same,"αs1 CN, 6 hours, 11° C.",1.14e+07 Volume
same,"αs1 CN, 6 hours, 11° C. (average)",1.58e+07 Volume
same,"αs1 CN, 16 hours, 30° C.",900000 Volume
same,"αs1 CN, 24 hours, 11° C.",1.6e+06 Volume
same,"αs1 CN, 24 hours, 11° C. (average)",4e+06 Volume
camel chymosin variant #138 (F223E) (protein) GKVAREPLTSYLDSQYFGKIYIGTPPQEFTVVFDTGSSDLWVPSIYCKSNVCKNHHRFDPRKSSTFRNLGKPLSIHYGTGSMEGFLGYDTVTVSNIVDPNQTVGLSTEQPGEVFTYSEFDGILGLAYPSLASEYSVPVFDNMMDRHLVARDLFSVYMDRNGQGSMLTLGAIDPSYYTGSLHWVPVTLQQYWQFTVDSVTINGVAVACVGGCQAILDTGTSVLEGPSSDILKIQMAIGATENRYGEFDVNCGNLRSMPTVVFEINGRDYPLSPSAYTSKDQGFCTSGFQGDNNSELWILGDVFIREYYSVFDRANNRVGLAKAI,"(αSN1-1)/(αSN1), 6 hours, 11° C.",0.6
same,"(αSN1-1)/(αSN1), 24 hours, 11° C.",1.4
same,"αs1-I CN, 6 hours, 11° C.",2e+07 Volume
same,"αs1-I CN, 24 hours, 11° C.",2.47e+07 Volume
same,"αs1 CN, 6 hours, 11° C.",3.29e+07 Volume
same,"αs1 CN, 24 hours, 11° C.",1.74e+07 Volume
camel chymosin variant #139 (F223L) (protein) GKVAREPLTSYLDSQYFGKIYIGTPPQEFTVVFDTGSSDLWVPSIYCKSNVCKNHHRFDPRKSSTFRNLGKPLSIHYGTGSMEGFLGYDTVTVSNIVDPNQTVGLSTEQPGEVFTYSEFDGILGLAYPSLASEYSVPVFDNMMDRHLVARDLFSVYMDRNGQGSMLTLGAIDPSYYTGSLHWVPVTLQQYWQFTVDSVTINGVAVACVGGCQAILDTGTSVLLGPSSDILKIQMAIGATENRYGEFDVNCGNLRSMPTVVFEINGRDYPLSPSAYTSKDQGFCTSGFQGDNNSELWILGDVFIREYYSVFDRANNRVGLAKAI,"(αSN1-1)/(αSN1), 6 hours, 11° C.",1.2
same,"(αSN1-1)/(αSN1), 24 hours, 11° C.",4.3
same,"αs1-I CN, 6 hours, 11° C.",2.59e+07 Volume
same,"αs1-I CN, 24 hours, 11° C.",1.24e+07 Volume
same,"αs1 CN, 6 hours, 11° C.",2.1e+07 Volume
same,"αs1 CN, 24 hours, 11° C.",2.9e+06 Volume
camel chymosin variant #140 (F223M) (protein) GKVAREPLTSYLDSQYFGKIYIGTPPQEFTVVFDTGSSDLWVPSIYCKSNVCKNHHRFDPRKSSTFRNLGKPLSIHYGTGSMEGFLGYDTVTVSNIVDPNQTVGLSTEQPGEVFTYSEFDGILGLAYPSLASEYSVPVFDNMMDRHLVARDLFSVYMDRNGQGSMLTLGAIDPSYYTGSLHWVPVTLQQYWQFTVDSVTINGVAVACVGGCQAILDTGTSVLMGPSSDILKIQMAIGATENRYGEFDVNCGNLRSMPTVVFEINGRDYPLSPSAYTSKDQGFCTSGFQGDNNSELWILGDVFIREYYSVFDRANNRVGLAKAI,"(αSN1-1)/(αSN1), 6 hours, 11° C.",0.7
same,"(αSN1-1)/(αSN1), 24 hours, 11° C.",2
same,"αs1-I CN, 6 hours, 11° C.",2.34e+07 Volume
same,"αs1-I CN, 24 hours, 11° C.",2.27e+07 Volume
same,"αs1 CN, 6 hours, 11° C.",3.22e+07 Volume
same,"αs1 CN, 24 hours, 11° C.",1.14e+07 Volume
